Laboratory results reported in paper PMC3547041.

Biological target: Type II Hsp40 Sis1 (S. cerevisiae (endogenous in yeast)) (UniProt P25294)
Assay: co-IP; yeast cell extracts in Buffer A (150 mM NaCl, 50 mM Hepes pH 7.4, 1 mM EDTA, 0.1% Triton X-100), indicated antisera 1 hour at 4°C, Protein G beads, immunoblotting; extracts with or without Apyrase (Ssa1); WT or Δhsp104 strain (Sis1)

UniProt P25294, sequence (P25294 whole entry): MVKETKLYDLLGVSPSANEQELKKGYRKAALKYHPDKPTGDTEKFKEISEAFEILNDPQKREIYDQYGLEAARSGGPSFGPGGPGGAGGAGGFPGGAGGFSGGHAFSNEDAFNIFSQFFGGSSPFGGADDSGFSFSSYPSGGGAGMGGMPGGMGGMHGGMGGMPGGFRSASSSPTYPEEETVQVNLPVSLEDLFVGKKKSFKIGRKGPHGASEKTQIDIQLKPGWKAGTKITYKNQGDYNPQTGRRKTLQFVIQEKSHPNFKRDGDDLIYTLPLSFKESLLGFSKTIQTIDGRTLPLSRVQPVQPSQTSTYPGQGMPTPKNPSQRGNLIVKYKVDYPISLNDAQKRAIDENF

short-lived GFP (slGFP)
fold change of immunoprecipitable Sis1:slGFP complexes in Δhsp104 against WT: 1.5 fold
